Source: patent US20190382503A1 (published 2019)

Tests used:
[1] = molecular target: T1, CD137 / 4-1BB (soluble antigen, form not stated) (UniProt Q07011 24-186, limits assumed); assay: ELISA
T1 construct: also called biotinylated 4-1BB antigen; CD137 in ELISA

human CD137 on cells = molecular target: T2, human CD137 on cells (human, UniProt Q07011 24-255); assay: flow cytometry, CD3-stimulated primary human CD8 T cells (summary of the study)
T2 construct: Human CD137 on CHO-K1 transfectants, Jurkat/CD137 reporter cells or CD3-stimulated primary human CD8 T cells; cells named under assay; also called 4-1BB; TNFRSF9
Method: FACS staining and analysis of CD8 T cells: Following 48 h of incubation with or without CD3, human and cynomolgus PBMC were harvested, pooled, recounted and diluted in FACS buffer (PBS+0.5% BSA, 0.05% NaN₃) to a concentration of 5×10⁶ cells/mL. 50 μL (0.25×10⁶ cells) of cell solution was added to a 96-well FACS staining plate (Falcon #351190). Following 10 min of Fc-blocking in RT using Beriglobin (hIgG, 200 μg/mL), cells were washed in FACS buffer and then incubated for 1 h in 4° C. with 100 μL of the biotinylated ALG.APV-210 or negative control. The antibodies were added in a serial dilution starting either at 5 μg/mL titrating down in a 12 step 1/3 dilution down to 0.0003 μg/mL (exp 1) or 1 μg/mL titrating down in a 12 step 1/2 dilution down to 0.0005 μg/mL (exp 2). […] Cells were analysed for ALG.APV-210 binding using flow cytometry by gating on viable, single cells expressing CD3 and CD8. MFI values (FMO subtracted) from 2 independent experiments as well as normalized pooled data from 2 experiments and EC₅₀-values were determined and plotted using GraphPad Prism 7, non-linear regression log (agonist) vs. normalized response-variable slope, n=6 donors/group.

human 5T4 on cells [2] = molecular target: T3, human 5T4 on cells (human, UniProt Q13641 32-420); assay: flow cytometry, HCT-116 cells, streptavidin-PE, normalized MFI of 2 pooled experiments
T3 construct: Human 5T4 on transfected cells (CHO-K1, CT26, B16) or endogenous on human tumour lines; the cell line is named under assay; also called trophoblast glycoprotein; TPBG
T3 sequence: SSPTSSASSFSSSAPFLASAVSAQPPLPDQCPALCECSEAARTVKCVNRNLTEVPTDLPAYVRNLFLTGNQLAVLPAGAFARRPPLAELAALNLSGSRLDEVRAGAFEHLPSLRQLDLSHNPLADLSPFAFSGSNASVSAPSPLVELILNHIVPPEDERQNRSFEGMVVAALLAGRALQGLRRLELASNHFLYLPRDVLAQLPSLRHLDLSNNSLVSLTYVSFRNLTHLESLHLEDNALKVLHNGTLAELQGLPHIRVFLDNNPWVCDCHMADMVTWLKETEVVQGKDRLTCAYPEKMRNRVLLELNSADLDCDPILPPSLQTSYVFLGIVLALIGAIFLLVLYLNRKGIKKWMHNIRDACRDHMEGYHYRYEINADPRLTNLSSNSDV
Method: (§1) FACS staining and analysis of 5T4-expressing cell lines: Prior to the FACS staining, all cell lines were characterized for their 5T4 expression levels using a receptor density kit (Quantum Simply Cellular, anti-human IgG, Bangs Laboratories, Inc). Adherent cell lines were cultured according to their supplier's instructions and were harvested from their cell culture flasks using Trypsin/EDTA, counted in R10 medium in a Burker chamber, and diluted in FACS buffer (PBS+0.5% BSA, 0.05% NaN₃) to a concentration of 4×10⁶ cells/mL. 50 μL (0.20×10⁶) of cell solution was added to a 96-well FACS staining plate (Falcon #351190). Cells were incubated for 20 min in 4° C. with 50 μL of the biotinylated ALG.APV-210 (2× final concentration). The antibodies were added in a serial dilution starting at 20 μg/mL titrating down in a 12 step 1/2 dilution down to 0.010 μg/mL. […] Cells were analysed for ALG.APV-210 binding using flow cytometry (FACSVerse) by gating on single cells. MFI values (secondary antibody only subtracted) from 1 out of 2 independent experiments, as well as normalized data and EC₅₀-values of pooled data from 2 experiments were determined and plotted using GraphPad Prism 7, non-linear regression log (agonist) vs. normalized response-variable slope.

human 5T4 on cells [3] = molecular target: T3, human 5T4 on cells; assay: flow cytometry, B16-hu5T4 cells, streptavidin-PE, normalized MFI of 2 pooled experiments
Method: as §1

human 5T4 on cells [4] = molecular target: T3, human 5T4 on cells; assay: flow cytometry, CHO-hu5T4 cells, streptavidin-PE, normalized MFI of 2 pooled experiments
Method: Biotinylation: In order to detect ALG.APV-210 binding to 5T4-expressing cell lines, ALG.APV-210 was first biotinylated. The quality of the biotinylated protein and the impact on binding to its targets was assessed using ELISA.
as §1, with “concentration).” for “concentration). The antibodies were added in a serial dilution starting at 20 μg/mL titrating down in a 12 step 1/2 dilution down to 0.010 μg/mL.”

human 5T4 on cells [5] = molecular target: T3, human 5T4 on cells; assay: flow cytometry, CT26-hu5T4^low cells, streptavidin-PE, normalized MFI of 2 pooled experiments
Method: as §1

[6] = molecular target: T4, cynomolgus CD137 on cells (cynomolgus macaque, UniProt A9YYE7 24-254); assay: flow cytometry, cynomolgus CD8 T cells gated from CD3-stimulated PBMC, normalized MFI, 2 pooled experiments
T4 construct: whole, on cells; also called CHO-K1/cynomolgus CD137; cynomolgus monkey CD137
Method: Isolation and stimulation of cynomolgus PBMC: Cynomolgus PBMC were isolated from 20 mL of cynomolgus monkey blood from 3 different donors, obtained from Silabe, France by density gradient centrifugation using Lympholyte-mammal (Cedarlane labs) according to manufacturer's instructions. Non-tissue treated 96 well plates were pre-coated overnight at 4° C. with 3 μg/mL α-monkey CD3, clone FN-18 (Invitrogen #APS0301). The cynomolgus PBMC were then stimulated identically as the human PBMC described above
FACS staining and analysis of CD8 T cells: Following 48 h of incubation with or without CD3, human and cynomolgus PBMC were harvested, pooled, recounted and diluted in FACS buffer (PBS+0.5% BSA, 0.05% NaN₃) to a concentration of 5×10⁶ cells/mL. 50 μL (0.25×10⁶ cells) of cell solution was added to a 96-well FACS staining plate (Falcon #351190). […] Cells were analysed for ALG.APV-210 binding using flow cytometry by gating on viable, single cells expressing CD3 and CD8. MFI values (FMO subtracted) from 2 independent experiments as well as normalized pooled data from 2 experiments and EC₅₀-values were determined and plotted using GraphPad Prism 7, non-linear regression log (agonist) vs. normalized response-variable slope, n=6 donors/group.

T4 sequence (A9YYE7 entry or part of it): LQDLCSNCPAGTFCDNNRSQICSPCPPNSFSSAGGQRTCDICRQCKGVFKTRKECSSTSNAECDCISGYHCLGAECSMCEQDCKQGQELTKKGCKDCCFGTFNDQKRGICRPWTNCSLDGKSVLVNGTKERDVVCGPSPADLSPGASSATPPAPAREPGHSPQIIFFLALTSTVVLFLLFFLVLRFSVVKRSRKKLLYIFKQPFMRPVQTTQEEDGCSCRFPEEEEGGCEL
T2 sequence (Q07011 24-255 limits assumed): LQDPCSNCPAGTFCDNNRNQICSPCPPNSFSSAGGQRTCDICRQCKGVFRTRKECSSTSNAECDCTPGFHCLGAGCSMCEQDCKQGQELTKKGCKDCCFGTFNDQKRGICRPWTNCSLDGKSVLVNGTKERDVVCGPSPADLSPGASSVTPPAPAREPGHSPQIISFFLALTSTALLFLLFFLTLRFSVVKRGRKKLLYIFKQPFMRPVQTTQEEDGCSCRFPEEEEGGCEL

B1: biotinylated ALG.APV-210 (bispecific antibody)
chain: EVQLLESGGGLVQPGGSLRLSCAASGFTFSHGSMYWVRQAPGKGLEWVSSISSGSGSTYYADSVKGRFTISHDNSKNTLYLQMNSLRAEDTAVYYCARSSYYGSYYSIDYWGQGTLVTVSSGGGGSGGGGSGGGGSGGGGSDIQMTQSPSSLSASVGDRVTITCRASQSISSYLNWYQQKPGKAPKLLIYAASSLQSGVPSRFSGSGSGTDFTLTISSLQPEDFATYYCQQYYDNLPTFGQGTKLEIKEPKSSDKTHTCPPCPAPEAAGAPSVFLFPPKPKDTLMISRTPEVTCVVVDVSHEDPEVKFNWYVDGVEVHNAKTKPREEQYNSTYRVVSVLTVLHQDWLNGKEYKCAVSNKALPAPIEKTISKAKGQPREPQVYTLPPSRDELTKNQVSLTCLVKGFYPSDIAVEWESNGQPENNYKTTPPVLDSDGSFFLYSKLTVDKSRWQQGNVFSCSVMHEALHNHYTQKSLSLSPGSGGGGSGGGGSGGGGSPSEVQLLESGGGLVQPGGSLRLSCAASGFTFSSYAMSWVRQAPGKCLEWVSAISGSGGSTYYADSVKGRFTISRDNSKNTLYLQMNSLRAEDTAVYYCARYYGGYYSAWMDYWGQGTLVTVSSGGGGSGGGGSGGGGSGGGGSDIQMTQSPSSLSASVGDRVTITCRASQSISSFLNWYQQKPGKAPKLLIYAASSLQSGVPSRFSGSGSGTDFTLTISSLQPEDSATYYCQQTYGYLHTFGCGTKLEIKR
modifications: biotinylated (sites not given)
Which results are given for B1?
EC50 [1]: 0.6 nM; EC50 (human CD137 on cells): 0.2 nM; EC50 (human 5T4 on cells [2]): 16 nM; EC50 (human 5T4 on cells [3]): 14 nM; EC50 (human 5T4 on cells [4]): 23 nM; EC50 (human 5T4 on cells [5]): 11 nM; EC50 [6]: 0.236 nM
